Test results taken from the DeepSol protein solubility set.

assay: soluble on expression in E. coli; label from the status in PepcDB or PDB records

Sequence	soluble on expression in E. coli
MAHHHHHHMSSDYSRVCAAEKASESHPPGYSRDALETELREGFRKQQQQVNKNRQVEQMALAKGLGESATTSLKDGFYIPHKVLPPLKPEEKKLFERIDIMKWCGRAGRKLEDSAVAPPPTLGEVPAEHQPMQVQEHQASTEADAEDALSTSVSSTASSLAALKDNSSEDVRHLLHQLRSTSRATSSLRDARAEVDDNIQAVEEALLRQSSPLSFEDLLDTAARLLAAMERGELTEDVVVPRGADVSTEKDEGSPGSPADSAEAPLSASGSTTRVLHGAVEVETYTRKHLLPRAYQVVAIAHTAEWILQYTMAYLRTTVAVNQDEAFTRLTLLARCVRLLGDIENFSSILLSLETKCEEYAGFAALKDTAEKHLGTLLDDVETSLDAILSAPFPSRRSRLLLLEGGIQKKLQRALLFLNEIDYSWTPHVRFHWAWKVQLLSASFHRIHGLISRKHMQCSMGFVDDSLYERVADTRITGRYMGASPVQPKVLRAQQVEYEKITEGLTFQQIGMSIKGVASLLIGEQLCMGARYILCQSTKQFDPVWGFHMDEISTAPTQEELSAMAAKIAVHAKEQLTARPTIARKEHSSSTFLTQM	not soluble
MGSDKIHHHHHHCGGSGSSEPVAPTTTPDTGFSFAATAMITNLTQEVIVTGYADLAAKGSELVLATQKLINSTSQADLVAAQDAWKAARQPWEQGESHIFGPVDSLSIDPHLDSWPLNTTDLSTQLTTAAGFDAETIKSWNDDVQGFHTMEYLLFGDGVADNTKDISELTVKEREYLIALAQVFRDHAKTLDDAWQINHKPDDANAKPYAELLSQPGVDGNTVYSSELAVIEELINGMIGIVDEVGNGKISDPFGDSITSADTSKVESQYSWNSLTDFANNIQGVRNVYQGEFTGNTDKQGVKDFVSAADANLAVRVASEIDDAIIKIQAISGSNSMPFRQAIKDANGRVRIQTAIDALTKLKTSLESDVIPLLSKWKPA	not soluble
MYNDRHLSLFHLLFRAKIQRAINYFFMITFSEIQLLRGGKPLLEQASATIHPGDKVGLVGKNGCGKSTLFALLKDELTIDAGSFSKPAHWELAWVAQETPALDRTALEYVIDGDREYRELERQLMDAEAADNGTKVADLHGKIEMVGGYSIRARASELLDGLGFTQEQMSWSLTQFSGGWRMRLNLAQALICRSDLLLLDEPTNHLDLDAVMWLERWLQSYPGTLILISHDRDFLDPIVNRIVHIENQTLNEYTGNYSSFETQRAQKMLQQQAIYQKQQKQMAHMQSYIDRFRYKASKARQAQSRIKALERMEKVLPAQFDNPFSFEFREPAALPNPILMMDQVAAGYGDHLILEKIRLNLVPGSRIGLLGRNGAGKSTLIKLLSGELKPQSGDCTYSQGVKIGYFAQHQLETLHPEETPLQHMMQIAPDKNELELRNYLGSFGFHGEKALEKVAPFSGGEKARLVLALIVWQKPNLLLLDEPTNHLDLDMRQALTLALQSYEGAMVIVSHDRYLLRATTDDLYLVHDHQVGPFDGDLNDYYKWLTDQQKAERKETQPTNTANSANSAAAKKEQKRREADFRKLTAPIRKKLTQLEEKLDKLNHVVSEMEAQLSDTSLYEAQNKATLTEVLAKQAAAKSELEQVELEWMAEQETLEEMERKFNG	not soluble
MTIIINMRSGVDEVKLRIAAKLIREGKLVAFPTETVYGLGADALNERAVRRIFEAKGRPADNPLILHIAKFSQVYELAREVPEEAKVLVERFWPGPLTIVLPRKDVVPDVTTGGLDTVAIRMPANEIALKLIELSGKPIAAPSANISGKPSPTSAEHVADDFYGKIECIIDGGETRIGVESTVIDLTEHPPVLLRPGGLPLEEIEKVIGKVRIHPAVFGKKVDTPKSPGMKYKHYAPNAEVIVVEGPREKVKGKITELVKELKERGKKVGVIGSESYNADEFFFLGSSVEEVAKNLFKALRYMDKAGVDVVIAEGVEERGLGLAVMNRLRKASGYKIVKA	soluble
MRGSVSQEEVKKWAESLENLINHECGLAAFKAFLKSEYSEENIDFWISCEEYKKIKSPSKLSPKAKKIYNEFISVQATKEVNLDSCTREETSRNMLEPTITCFDEAQKKIFNLMEKDSYRRFLKSRFYLDLTNPSSCGAEKQKGAKSSADCTSLVPQCAHHHHHHP	soluble
MGHHHHHHSHIHRIDSTEVIYQPRRKRAKLIGKYLMGDLLGEGSYGKVKEVLDSETLCRRAVKILKKKKLRRIPNGEANVKKEIQLLRRLRHKNVIQLVDVLYNEEKQKMYMVMEYCVCGMQEMLDSVPEKRFPVCQAHGYFCQLIDGLEYLHSQGIVHK	soluble
MGHIIDISKWNGDINWSIAKQHIDFIIARVQDGSNYVDPLYKGYVQAMKQHGIPFGNYAFCRFVSIADAKKEAQDFWNRGDKSATVWVADVEVKTMNDMRAGTQAFIDELYRLGAKKVGLYVGHHMYTPFGMANVKSDFVWIPRYGGNKPAYPCDIWQYTETGNVPGIGKCDLNSLIGNKSLSWFTESATQESVQAPTQNIIQSGAFSPYETPDVTGALTSLKMTAKFILKPDGLTYFISDPTSDAQLNAMKEYLDRKGWWYEVK	not soluble
LVTISSTSAASLPTMPPSGYDQVRNGVPRGQVVNISYFSTATNSTRPARVYLPPGYSKDKKYSVLYLLHGIGGSENDWFEGGGRANVIADNLIAEGKIKPLIIVTPNTNAAGPGIADGYENFTKDLLNSLIPYIESNYSVYTDREHRAIAGLSMGGGQSFNIGLTNLDKFAYIGPISAAPNTYPNERLFPDGGKAAREKLKLLFIACGTNDSLIGFGQRVHEYCVANNINHVYWLIQGGGHDFNVWKPGLWNFLQMADEAGLTRDGNT	soluble
MNKQRLITELQSKGLRLVDPNAKDLGRKGGAGPSDHRAVTVDGTTVMVPIYTSTAAASPYSINLASMPPKTVLSKGDEEIAAIALPRQPKFYDLKTADGIPYSHIALLHSNNVLATTVQQTCIRYRDESTVCQFCAIEKSLDAGRTITRKLPEQLAEVTEAAVRLDGIEQVIMTTGTPNSGDRGAAYLTKCAAAIKARVNIPIQAQCEPPDDFIWFERMKAAGVDSLGMHLEAVDPDVRAKIMPGKAEVPVSYYYEAYEAAVKVFGWGQVSTYLLAGLGDSFETLVEASEKLVNMGVYPFVVPFVPISETPLANHPAPDSDFMFALYQRVGTIIKQSQISSVDMKAGCAKCGACSALSTFAKLEHHHHHH	not soluble
MGSDKIHHHHHHMFKNTFQSGFLSILYSIGSKPLQIWDKKVRNGHIKRITDNDIQSLVLEIEGTNVSTTYITCPADPKKTLGIKLPFLVMIIKNLKKYFTFEVQVLDDKNVRRRFRASNYQSTTRVKPFICTMPMRLDDGWNQIQFNLLDFTRRAYGTNYIETLRVQIHANCRIRRVYFSDRLYSEDELPAEFKLYLPVQNKAKQ	not soluble
MMKDAVVITVGNEVLKGRTVNTNASFIGNFLTYQGYRVKLGLTVMDDLEDISWAFKTAMDRGDVIVSSGGLGPTFDDMTVEGFAKAIGSDNKLNQDALAMIEEKYKNIEITPERKKMAMMPEVCKPIRNPVGTAPGLLCSVGGKKVVILPGVPMEMQALLESMRDSLAIENSCYFDESINITGIMESTFAPYVERVMREVDGVYVKSHPKNIEVVNPSLEIEVSAYDVSQEAARKKVKDAIARIRAYAETILDSKDK	not soluble
MGSDKIHHHHHHMTVDTRPAVGNPGYATSSPELERWLARHISEGFGAESLVLSMLRSGYDAAFARSAVATAMGHRRPDASATQPAPRLARREVPVLFSLQSPSIRLYQHLLSDAECDALVELARGRLARSPVINPDTGDENLIDARTSMGAMFQVGEHTLIQRIEDRIAAVLGVPVDHGEGLQILNYKPGGEYQPHFDFFNPKRPGEARQLRVGGQRTATLVIYLNTPQAGGATAFPRIGLEVAPVKGNAVYFSYLQPDGKLDERTLHAGLPVQSGEKWIATKWLREHPYRAGA	not soluble
MKTNSEELTVFVQVVESGSFSRAAEQLAMANSAVSRIVKRLEEKLGVNLLNRTTRQLSLTEEGAQYFRRAQRILQEMAAAETEMLAVHEIPQGVLSVDSAMPMVLHLLAPLAAKFNERYPHIRLSLVSSEGYINLIERKVDIALRAGELDDSGLRARHLFDSRFRVIASPEYLAKHGTPQSTEELAGHQCLGFTEPGSLNTWAVLDAQGNPYKISPHFTASSGEILRSLCLSGCGIVCLSDFLVDNDIAEGKLIPLLAEQTSDKTHPFNAVYYSDKAVNLRLRVFLDFLVEELGNNLCGKHHHHHH	soluble
